Test results from patent US20030036169A1 (University of Texas, published 2003).
Substitutions are numbered along the chain they refer to. No end group written: not given here.

T1: Mint 1 (rat, UniProt O35430 1-839)
T1 construct: Full-length rat Mint 1 from pCMV5 vectors in transfected COS/HEK293 cells; also called Mints/X11 1; wild-type Mint 1
T1 sequence: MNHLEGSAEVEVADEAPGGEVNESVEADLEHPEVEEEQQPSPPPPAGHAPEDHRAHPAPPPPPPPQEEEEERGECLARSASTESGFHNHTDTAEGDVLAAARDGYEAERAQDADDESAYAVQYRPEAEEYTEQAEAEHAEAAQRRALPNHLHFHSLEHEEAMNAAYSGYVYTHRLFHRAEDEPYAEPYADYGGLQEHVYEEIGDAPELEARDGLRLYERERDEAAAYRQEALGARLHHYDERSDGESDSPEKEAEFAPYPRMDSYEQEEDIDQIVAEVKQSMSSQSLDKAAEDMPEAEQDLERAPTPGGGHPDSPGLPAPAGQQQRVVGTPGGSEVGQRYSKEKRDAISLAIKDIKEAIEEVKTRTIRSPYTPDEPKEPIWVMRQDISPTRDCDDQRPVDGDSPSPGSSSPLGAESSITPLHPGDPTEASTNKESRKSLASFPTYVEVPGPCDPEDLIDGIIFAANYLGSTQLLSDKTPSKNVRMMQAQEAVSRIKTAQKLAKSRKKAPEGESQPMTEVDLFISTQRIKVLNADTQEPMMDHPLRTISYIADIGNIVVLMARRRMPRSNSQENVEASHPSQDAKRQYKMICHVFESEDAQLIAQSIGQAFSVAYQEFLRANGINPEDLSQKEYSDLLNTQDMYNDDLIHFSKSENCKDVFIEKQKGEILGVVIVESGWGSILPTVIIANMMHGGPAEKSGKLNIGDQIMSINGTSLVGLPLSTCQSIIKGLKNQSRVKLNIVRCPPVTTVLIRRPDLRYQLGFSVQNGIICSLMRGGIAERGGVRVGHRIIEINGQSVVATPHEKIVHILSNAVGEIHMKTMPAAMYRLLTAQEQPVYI

T2: Mint 2 (rat, UniProt O35431 1-750)
T2 construct: Endogenous rat brain protein or full-length rat Mint 2 from a pCMV5 vector; also called Mints/X11 2; pCMV-Mint 2
T2 sequence: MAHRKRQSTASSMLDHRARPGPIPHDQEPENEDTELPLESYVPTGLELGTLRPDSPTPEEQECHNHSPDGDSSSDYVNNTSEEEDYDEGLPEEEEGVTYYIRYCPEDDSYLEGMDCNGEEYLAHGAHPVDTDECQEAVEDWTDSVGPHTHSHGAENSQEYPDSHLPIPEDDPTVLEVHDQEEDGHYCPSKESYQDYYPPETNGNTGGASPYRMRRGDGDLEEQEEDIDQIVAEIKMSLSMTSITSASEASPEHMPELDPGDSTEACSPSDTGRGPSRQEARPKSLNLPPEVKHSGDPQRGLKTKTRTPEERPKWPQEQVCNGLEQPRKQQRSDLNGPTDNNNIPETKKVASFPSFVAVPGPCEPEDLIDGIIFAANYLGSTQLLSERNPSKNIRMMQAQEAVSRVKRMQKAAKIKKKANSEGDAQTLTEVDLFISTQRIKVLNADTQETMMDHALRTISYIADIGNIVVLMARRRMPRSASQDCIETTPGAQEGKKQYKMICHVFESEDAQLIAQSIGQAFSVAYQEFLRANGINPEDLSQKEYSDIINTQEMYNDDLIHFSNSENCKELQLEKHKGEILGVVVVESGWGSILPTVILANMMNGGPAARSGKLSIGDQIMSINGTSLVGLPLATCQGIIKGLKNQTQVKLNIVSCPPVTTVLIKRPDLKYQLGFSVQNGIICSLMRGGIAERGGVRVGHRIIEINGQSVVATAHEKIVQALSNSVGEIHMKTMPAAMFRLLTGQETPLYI

T3: Mint 3 (rat, UniProt O70248 1-569)
T3 construct: Endogenous rat brain protein or full-length rat Mint 3 from a pCMV5 vector; also called Mints/X11 3; pCMV-Mint 3
T3 sequence (looked up): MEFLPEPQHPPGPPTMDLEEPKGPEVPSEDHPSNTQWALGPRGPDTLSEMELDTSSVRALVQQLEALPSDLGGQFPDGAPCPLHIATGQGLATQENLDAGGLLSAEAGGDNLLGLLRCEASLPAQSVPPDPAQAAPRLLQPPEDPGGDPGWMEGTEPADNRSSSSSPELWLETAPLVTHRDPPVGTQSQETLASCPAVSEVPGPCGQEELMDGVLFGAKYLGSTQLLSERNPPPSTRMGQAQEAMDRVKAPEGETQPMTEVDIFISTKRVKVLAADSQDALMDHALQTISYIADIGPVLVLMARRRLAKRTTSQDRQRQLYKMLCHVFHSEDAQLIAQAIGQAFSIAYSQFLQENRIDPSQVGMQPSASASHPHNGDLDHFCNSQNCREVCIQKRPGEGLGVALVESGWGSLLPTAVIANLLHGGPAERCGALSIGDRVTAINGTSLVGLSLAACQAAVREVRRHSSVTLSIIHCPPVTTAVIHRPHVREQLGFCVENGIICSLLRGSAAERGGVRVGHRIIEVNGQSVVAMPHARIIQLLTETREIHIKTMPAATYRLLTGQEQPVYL

B1: Mint 1 ΔPDZ (other)
chain: MNHLEGSAEVEVADEAPGGEVNESVEADLEHPEVEEEQQPSPPPPAGHAPEDHRAHPAPPPPPPPQEEEEERGECLARSASTESGFHNHTDTAEGDVLAAARDGYEAERAQDADDESAYAVQYRPEAEEYTEQAEAEHAEAAQRRALPNHLHFHSLEHEEAMNAAYSGYVYTHRLFHRAEDEPYAEPYADYGGLQEHVYEEIGDAPELEARDGLRLYERERDEAAAYRQEALGARLHHYDERSDGESDSPEKEAEFAPYPRMDSYEQEEDIDQIVAEVKQSMSSQSLDKAAEDMPEAEQDLERAPTPGGGHPDSPGLPAPAGQQQRVVGTPGGSEVGQRYSKEKRDAISLAIKDIKEAIEEVKTRTIRSPYTPDEPKEPIWVMRQDISPTRDCDDQRPVDGDSPSPGSSSPLGAESSITPLHPGDPTEASTNKESRKSLASFPTYVEVPGPCDPEDLIDGIIFAANYLGSTQLLSDKTPSKNVRMMQAQEAVSRIKTAQKLAKSRKKAPEGESQPMTEVDLFISTQRIKVLNADTQEPMMDHPLRTISYIADIGNIVVLMARRRMPRSNSQENVEASHPSQDAKRQYKMICHVFESEDAQLIAQSIGQAFSVAYQEFLRANGINPEDLSQKEYSDLLNTQDMYNDDLIHFSKSENCKDV
B2: Mint 1 PDZ1* (other)
chain: T1 sequence with G670A, V671A
notes: Produced in transfected COS or HEK293 cells; also called pCMV-Mint 1-PDZ1*
B3: immobilized cytoplasmic peptide derived from APP (CGYENPTYKFFEQMQN) (peptide)
peptide: CGYENPTYKFFEQMQN
modifications: not fully specified (residue 1); also: immobilized on SulfoLink beads via N-terminal Cys
notes: Coupled through the added N-terminal Cys to SulfoLink beads; also called immobilized cytoplasmic tail of APP; immobilized APP tail
B4: peptide corresponding to the extreme C-terminus of Drosophila Presenilin (CMEDLSAKQVFI) (peptide)
peptide: CMEDLSAKQVFI
modifications: also: immobilized on SulfoLink beads
notes: Has an added N-terminal Cys and is immobilized on SulfoLink beads; also called Drosophila presenilin C-terminal peptide
B5: peptide corresponding to the extreme C-terminus of human HPV2 (poliovirus receptor-related protein 2; CGSLISRRAVYV) (peptide)
peptide: CGSLISRRAVYV
modifications: also: immobilized on SulfoLink beads
notes: Negative control peptide immobilized on SulfoLink beads; also called HPV2 control peptide
B6: peptide corresponding to the extreme C-terminus of human Presenilin 1 (CMDQLAFHQFYI) (peptide)
peptide: CMDQLAFHQFYI
modifications: also: immobilized on SulfoLink beads
notes: Has an added N-terminal Cys and is immobilized on SulfoLink beads; also called Pres1; presenilin 1 column
B7: peptide corresponding to the extreme C-terminus of human Presenilin 2 (CMDTLASHQLYI) (peptide)
peptide: CMDTLASHQLYI
modifications: also: immobilized on SulfoLink beads
notes: Has an added N-terminal Cys and is immobilized on SulfoLink beads; also called presenilin 2 C-terminal peptide
B8: peptide derived from the gp41 glycoprotein (CWFSITNWLWYI) (peptide)
peptide: CWFSITNWLWYI
modifications: also: immobilized on SulfoLink beads
notes: Negative control peptide immobilized on SulfoLink beads; also called gp41 control peptide; Control

Tests used:
[1] = target: APP-Gal4/VP16 fusion protein (human; yeast, UniProt P05067 18-651; P04386 1-147; P06492 413-490; P05067 652-695); assay: cell-based or functional assay
[2] = target: B6; assay: affinity chromatography of COS cell-expressed Mint 1 proteins on the immobilized presenilin 1 C-terminal peptide
[3] = target: T1, Mint 1; assay: affinity chromatography on the immobilized APP tail peptide, immunoblot
[4] = target: T2, Mint 2; assay: as above
[5] = target: T3, Mint 3; assay: as above
[6] = target: T1, Mint 1; assay: affinity chromatography on the immobilized Drosophila presenilin C-terminal peptide
[7] = target: T1, Mint 1; assay: affinity chromatography on the immobilized HPV2 control peptide
[8] = target: T1, Mint 1; assay: affinity chromatography on the immobilized presenilin 1 C-terminal peptide, immunoblot
[9] = target: T3, Mint 3; assay: as above
[10] = target: T4, synaptophysin 1 (Syp) (rat, UniProt P07825 1-307); assay: affinity chromatography of rat forebrain membrane proteins on the presenilin 1 C-terminal peptide
T4 construct: Negative control protein

[11] = target: PSD95 (rat, UniProt P31016 1-724); assay: affinity chromatography of rat forebrain membrane proteins on the immobilized presenilin 1 C-terminal peptide, immunoblot
[12] = target: T2, Mint 2; assay: as above
[13] = target: T1, Mint 1; assay: affinity chromatography on the immobilized presenilin 2 C-terminal peptide
[14] = target: T2, Mint 2; assay: affinity chromatography of rat forebrain membrane proteins on the gp41 control peptide
[15] = target: T3, Mint 3; assay: as above
[16] = target: T1, Mint 1; assay: affinity chromatography of rat brain extract on the immobilized gp41 control peptide, immunoblot

T4 sequence (P07825 whole entry): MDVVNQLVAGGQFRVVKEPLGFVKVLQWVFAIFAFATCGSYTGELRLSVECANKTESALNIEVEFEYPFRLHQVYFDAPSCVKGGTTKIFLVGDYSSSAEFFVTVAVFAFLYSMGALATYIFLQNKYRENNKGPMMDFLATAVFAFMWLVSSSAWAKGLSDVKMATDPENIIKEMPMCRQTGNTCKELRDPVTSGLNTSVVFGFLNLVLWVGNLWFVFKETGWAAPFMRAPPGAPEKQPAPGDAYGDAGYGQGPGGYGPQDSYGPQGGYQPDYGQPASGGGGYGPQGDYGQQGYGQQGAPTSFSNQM
PSD95, sequence (P31016 whole entry): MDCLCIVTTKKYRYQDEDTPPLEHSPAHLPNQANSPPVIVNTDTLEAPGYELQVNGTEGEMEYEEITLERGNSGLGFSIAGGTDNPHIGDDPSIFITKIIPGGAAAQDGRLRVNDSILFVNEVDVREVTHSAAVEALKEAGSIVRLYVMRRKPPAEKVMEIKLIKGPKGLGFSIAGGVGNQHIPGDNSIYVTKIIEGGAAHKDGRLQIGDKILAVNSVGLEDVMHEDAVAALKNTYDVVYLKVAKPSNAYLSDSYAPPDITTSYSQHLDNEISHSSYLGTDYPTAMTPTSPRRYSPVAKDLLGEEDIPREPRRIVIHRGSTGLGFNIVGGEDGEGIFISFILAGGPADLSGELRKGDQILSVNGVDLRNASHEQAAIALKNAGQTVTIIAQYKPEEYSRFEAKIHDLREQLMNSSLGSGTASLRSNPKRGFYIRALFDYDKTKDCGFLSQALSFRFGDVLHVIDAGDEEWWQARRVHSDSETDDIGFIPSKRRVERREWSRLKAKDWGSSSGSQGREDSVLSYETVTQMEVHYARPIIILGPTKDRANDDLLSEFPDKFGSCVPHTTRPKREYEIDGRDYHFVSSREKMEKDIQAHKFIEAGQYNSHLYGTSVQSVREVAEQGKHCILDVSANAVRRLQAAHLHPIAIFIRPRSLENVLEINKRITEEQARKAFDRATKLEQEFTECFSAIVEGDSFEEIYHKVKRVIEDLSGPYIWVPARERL

Binder: B1
- potency of inhibition of transactivation relative to wild-type Mint 1 (normalized to expressed protein) [1]: ~10 times more potent than wild-type Mint 1

Binder: B2
- fold decrease in binding against wild-type Mint 1 [2]: ~2 fold decrease

Binder: B3
- binding result [3]: binds
- binding result [4]: binds
- binding result [5]: binds

Binder: B4
- binding result [6]: binds

Binder: B5
- binding result [7]: no binding

Binder: B6
- binding result [8]: binds
- binding result [9]: binds
- binding result [10]: no binding
- binding result [11]: binds
- binding result [12]: binds

Binder: B7
- binding result [13]: binds

Binder: B8
- binding result [14]: no binding
- binding result [15]: no binding
- binding result [16]: no binding
